Source: the supplement of paper PMC7877785
± gives the uncertainty stated by the source.

Test: self-splicing fitness, log relative to wild type (ln ratio); higher = more splicing; Tetrahymena group I intron in knt gene, E. coli kanamycin selection, DiMSum; sequences stand for … in CUCUCU…GGAGGGAAAAGUUAUCAGGCAUGCACCUGGUAGCUAGUCUUUAAACCAAUAGAUUGCAUCGGUUUAAAAGGCAAGACCGUCAAAUUGCGGGAAAGGGGUCAACAGCCGUUCAGUACCAAGUCUCAGGGGAAACUUUGAGAUGGCCUUGCAAAGGGUAUGGUAAUAAGCUGACGGACAUGGUCCUAACCACGCAGCCAAGUCCUAAGUCAACAGAUCUUCUGUUGAUAUGGAUGCAGUUCACAGACUAAAUGUCGGUCGGGGAAGAUGUAUUCUUCUCAUAAGAUAUAGUCGGACCUCUCCUUAAUGGGAGCUAGCGGAUGAAGUGAUGCAACACUGGAGCCGCUGGGAACUAAUUUGUAUGCGAAAGUAUAUUGAUUAGUUUUGGAGUACUCGUGGUCG
How it was run: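 Pooled colonies went to amplicon sequencing on an Illumina HiSeq 2500 after six replicate transformations. The plates were LB agar with 100 μg/mL carbenicillin, 50 μM IPTG and 0.2% rhamnose, with or without 25 μg/mL kanamycin, incubated overnight at 37°C or 30°C. The E. coli BL21(DE3) library had all eight P1ex-region intron nucleotides randomised, the intron placed in the knt kanamycin-resistance gene on pET-22b(+). DiMSum fitness is the error-weighted combination of replicate fold changes, kanamycin against none, normalised to wild type.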

| Sequence | self-splicing fitness (ln) (30 °C) | self-splicing fitness (ln) (37 °C) |
| --- | --- | --- |
| UGAAAGCAAUAUUACGUCUU | -1.69 ± 0.074 | -0.659 ± 0.073 |
| GGGAAGCAAUAUUACGCGAA | -0.913 ± 0.14 | -0.969 ± 0.2 |
| AUUCAGCAAUAUUACGAGAG | -2.65 ± 0.11 | -1.38 ± 0.1 |
| AAUAAGCAAUAUUACGAAUG | -1.37 ± 0.13 | -0.759 ± 0.17 |
| UAGUAGCAAUAUUACGCGAC | – | -1.69 ± 0.29 |
| GCACAGCAAUAUUACGUUUA | -1.19 ± 0.066 | -0.603 ± 0.066 |
| UAAAAGCAAUAUUACGCUAC | -3.07 ± 0.24 | – |
| GUGUAGCAAUAUUACGUAUA | -2.85 ± 0.49 | -0.725 ± 0.15 |
| UUAGAGCAAUAUUACGUCCA | -1.31 ± 0.22 | -1.71 ± 0.37 |
| AUCAAGCAAUAUUACGAGCC | -3.07 ± 0.32 | -1.23 ± 0.31 |
| AAGCAGCAAUAUUACGCUGA | -3.07 ± 0.11 | -1.98 ± 0.11 |
| AUAAAGCAAUAUUACGCGCC | -0.37 ± 0.13 | -0.473 ± 0.2 |
| ACACAGCAAUAUUACGUCAU | -2.34 ± 0.072 | -2.33 ± 0.094 |
| AGUUAGCAAUAUUACGUUCA | -1.28 ± 0.15 | -0.155 ± 0.16 |
| CGUCAGCAAUAUUACGAGCA | -0.74 ± 0.14 | -0.627 ± 0.14 |
| UGACAGCAAUAUUACGGACC | -0.664 ± 0.12 | -0.748 ± 0.21 |
| CUCCAGCAAUAUUACGGACG | -0.729 ± 0.059 | -0.666 ± 0.09 |
| UACCAGCAAUAUUACGAGCG | -0.124 ± 0.06 | 0.206 ± 0.075 |
| CCUGAGCAAUAUUACGCUAA | -3.04 ± 0.2 | -2.88 ± 0.25 |
| UUUCAGCAAUAUUACGACGG | -1.02 ± 0.11 | 0.205 ± 0.17 |
| GGGGAGCAAUAUUACGGUUU | -1.27 ± 0.24 | -0.456 ± 0.29 |
| CAAAAGCAAUAUUACGGCUG | -1.3 ± 0.088 | -0.592 ± 0.11 |
| CGCAAGCAAUAUUACGUUUG | -4.31 ± 0.26 | -2.8 ± 0.24 |
| GAGCAGCAAUAUUACGAUGG | -3.68 ± 0.25 | -2.61 ± 0.31 |
| CAACAGCAAUAUUACGCGCG | -0.385 ± 0.059 | -0.492 ± 0.082 |

| Sequence | self-splicing fitness (ln) (30 °C) | self-splicing fitness (ln) (37 °C) |
| --- | --- | --- |
| CGAGAGCAAUAUUACGCCUA | -2.4 ± 0.36 | -0.235 ± 0.38 |
| ACCCAGCAAUAUUACGCUCC | -0.481 ± 0.099 | -0.338 ± 0.14 |
| GGCGAGCAAUAUUACGUGUC | -4.05 ± 0.21 | -1.46 ± 0.16 |
| GUCUAGCAAUAUUACGUCCA | -1.07 ± 0.31 | -0.455 ± 0.21 |
| UAGAAGCAAUAUUACGUUCC | -2.51 ± 0.19 | -0.539 ± 0.17 |
| ACGAAGCAAUAUUACGAAGU | -3.44 ± 0.16 | -2.86 ± 0.2 |
| GCGCAGCAAUAUUACGCUAA | -1.42 ± 0.085 | -1.06 ± 0.11 |
| CUGAAGCAAUAUUACGUUCU | -3.39 ± 0.22 | -3.45 ± 0.37 |
| CCACAGCAAUAUUACGUCCA | -3.23 ± 0.19 | -1.59 ± 0.15 |
| UAAGAGCAAUAUUACGAAAA | – | -2.26 ± 0.38 |
| GCUGAGCAAUAUUACGGCCC | – | -2.32 ± 0.35 |
| AUAAAGCAAUAUUACGACAG | -1.2 ± 0.1 | -1.15 ± 0.12 |
| CCUUAGCAAUAUUACGGAAC | – | -2.73 ± 0.44 |
| UUGGAGCAAUAUUACGGUGU | -3.09 ± 0.32 | -1.64 ± 0.32 |
| CCUAAGCAAUAUUACGUAGA | -1.33 ± 0.08 | -0.523 ± 0.1 |
| UAGUAGCAAUAUUACGGUGU | -3.57 ± 0.32 | -3.21 ± 0.4 |
| UAAGAGCAAUAUUACGCCGU | – | -2.26 ± 0.43 |
| CCAUAGCAAUAUUACGGGGC | -2.41 ± 0.15 | -2.95 ± 0.29 |
| GGUGAGCAAUAUUACGGCCA | -1 ± 0.26 | -0.395 ± 0.17 |
| GGAAAGCAAUAUUACGACCG | -0.761 ± 0.12 | -0.184 ± 0.17 |
| GUUAAGCAAUAUUACGGGUC | -1.33 ± 0.34 | -1.77 ± 0.41 |
| CGGCAGCAAUAUUACGGACC | -2.09 ± 0.26 | -1.26 ± 0.2 |
| GCAAAGCAAUAUUACGAAGC | -1.83 ± 0.25 | -2.28 ± 0.34 |
| CGGUAGCAAUAUUACGUCCG | -2.86 ± 0.3 | -2.02 ± 0.36 |
| AUCCAGCAAUAUUACGUAGG | -2.91 ± 0.14 | -1.49 ± 0.12 |
